Data: US20020143164A1, “Ras activator nucleic acid molecules, polypeptides and methods of use” (priority 1999, published 2002)

B1: GRF2: Flag-tagged full-length RasGRF2, positive control GEF for Ras (protein, UniProt O14827 1-1237, looked up)
chain: MQKSVRYNEGHALYLAFLARKEGTKRGFLSKKTAEASRWHEKWFALYQNVLFYFEGEQSCRPAGMYLLEGCSCERTPAPPRAGAGQGGVRDALDKQYYFTVLFGHEGQKPLELRCEEEQDGKEWMEAIHQASYADILIEREVLMQKYIHLVQIVETEKIAANQLRHQLEDQDTEIERLKSEIIALNKTKERMRPYQSNQEDEDPDIKKIKKVQSFMRGWLCRRKWKTIVQDYICSPHAESMRKRNQIVFTMVEAESEYVHQLYILVNGFLRPLRMAASSKKPPISHDDVSSIFLNSETIMFLHEIFHQGLKARIANWPTLILADLFDILLPMLNIYQEFVRNHQYSLQVLANCKQNRDFDKLLKQYEANPACEGRMLETFLTYPMFQIPRYIITLHELLAHTPHEHVERKSLEFAKSKLEELSRVMHDEVSDTENIRKNLAIERMIVEGCDILLDTSQTFIRQGSLIQVPSVERGKLSKVRLGSLSLKKEGERQCFLFTKHFLICTRSSGGKLHLLKTGGVLSLIDCTLIEEPDASDDDSKGSGQVFGHLDFKIVVEPPDAAAFTVVLLAPSRQEKAAWMSDISQCVDNIRCNGLMTIVFEENSKVTVPHMIKSDARLHKDDTDICFSKTLNSCKVPQIRYASVERLLERLTDLRFLSIDFLNTFLHTYRIFTTAAVVLGKLSDIYKRPFTSIPVRSLELFFATSQNNRGEHLVDGKSPRLCRKFSSPPPLAVSRTSSPVRARKLSLTSPLNSKIGALDLTTSSSPTTTTQSPAASPPPHTGQIPLDLSRGLSSPEQSPGTVEENVDNPRVDLCNKLKRSIQKAVLESAPADRAGVESSPAADTTELSPCRSPSTPRHLRYRQPGGQTADNAHCSVSPASAFAIATAAAGHGSPPGFNNTERTCDKEFIIRRTATNRVLNVLRHWVSKHAQDFELNNELKMNVLNLLEEVLRDPDLLPQERKAAANILRALSQDDQDDIHLKLEDIIQMTDCMKAECFESLSAMELAEQITLLDHVIFRSIPYEEFLGQGWMKLDKNERTPYIMKTSQHFNDMSNLVASQIMNYADVSSRANAIEKWVAVADICRCLHNYNGVLEITSALNRSAIYRLKKTWAKVSKQTKALMDKLQKTVSSEGRFKNLRETLKNCNPPAVPYLGMYLTDLAFIEEGTPNFTEEGLVNFSKMRMISHIIREIRQFQQTSYRIDHQPKVAQYLLDKDLIIDEDTLYELSLKIEPRLPA
modifications: full-length Flag tag
notes: Flag-tagged full-length RasGRF2, positive control GEF for Ras
B2: ACDC25: Mutant GRF4 with deletion of the CDC25 domain (residue 711-1007) (protein)
chain: MKPLAIPANHGVMGQQEKHSLPADFTKLHLTDSLHPQVTHVSSSHSGCSITSDSGSSSLSDIYQATESEAGDMDLSGLPETAVDSEDDDDEEDIERASDPLMSRDIVRDCLEKDPIDRTDDDIEQLLEFMHQLPAFANMTMSVRRELCAVMVFAVVERAGTIVLNDGEELDSWSVILNGSVEVTYPDGKAEILCMGNSFGVSPTMDKEYMKGVMRTKVDDCQFVCIAQQDYCRILNQVEKNMQKVEEEGEIVMVKEHRELDRTGTRKGHIVIKGTSERLTMHLVEEHSVVDPTFIEDFLLTYRTFLSSPMEVGKKLLEWFNDPSLRDKVTRVVLLWVNNHFNDFEGDPAMTRFLEEFENNLEREKMGGHLRLLNIACAAKAKRRLMTLTKPSREAPLPFILLGGSEKGFGIFVDSVDSGSKATEAGLKRGDQILEVNGQNFENIQLSKAMEILRNNTHLSITVKTNLFVFKELLTRLSEEKRNGAPHLPKIGDIKKASRYSIPDLAVDVEQVIGLEKVNKKSKANTVGGRNKLKKILDKTRISILPQKPYNDIGIGQSQDDSIVGLRQTKHIPTALPVSGTLSSSNPDLLQSHHRILDFSATPDLPDQVLRVFKADQQSRYIMISKDTTAKEVVIQAIREFAVTATPDQYSLCEVSVTPEGVIKQRRLPDQLSKLADRIQLSGRYYLKNNMETETLCSDEDAQELLRESQPKNPGDKKPVKSETSPVAPRAGSQQKAQSLPQPQQQPPPAHKINQGLQVPAVSLYPSRKKVPVKDLPPFGINSPQALKKILSLSEEGSLERHKKQAEDTISNASSQLSSPPTSPQSSPRKGYTLAPSGTVDNFSDSGHSEISSRSSIVSNSSFDSVPVSLHDERRQRHSVSIVETNLGMGRMERRTMIEPDQYSLGSYAPMSEGRGLYATATVISSPSTEELSQDQGDRASLDAADSGRGSWTSCSSGSHDNIQTIQHQRSWETLPFGHTHFDYSGDPAGLWASSSHMDQIMFSDHSTKYNRQNQSRESLEQAQSRASWASSTGYWGEDSEGDTGTIKRRGGKDVSIEAESSSLTSVTTEETKPVPMPAHIAVASSTTKGLIARKEGRYREPPPTPPGYIGIPITDFPEGHSHPARKPPDYNVALQRSRMVARSSDTAGPSSVQQPHGHPTSSRPVNKPQWHKPNESDPRLAPYQSQGFSTEEDEDEQVSAV

Experiments:
Ras [1] = conditions: reference 23; cited from earlier work
Ras [2] = assay: In vitro GEF assay (32P-α-GTP binding to Ras); type: biochemical; conditions: immunoprecipitated Flag-tagged protein, 100 ng Ras, 30 min
Procedure: Full length (GRF4) or CDC25-deleted (ΔCDC25) GRF4, or GRF2, each Flag-tagged, were immunoprecipitated from transfected Hek-293T cells using anti Flag antibodies. Equal amounts of immunoprecipitates were washed with GEF lysis buffer, equilibrated with GEF assay buffer and incubated with 32P-α-GTP (diluted in cold GTP) plus 100 ng of Ras for 30 min. Bound and unbound radiolabelled GTP were then separated by filtration, and the amount of bound GTP determined by scintillation counting, as detailed in the Method section. Fold Ras activation was compared to the activation of Ras in the absence of GRFs (which was set to 1).
GRF4 has a RasGRF(GEF) activity/function. To show its GEF activity, we performed in-vitro GEF assays. Briefly, GST-Ras was added alone (tubes 1 and 2) or along with GST-CDC25, or immunoprecipitated full-length of GRF4 (tubes 3 and 4). All tubes contained assay mixture including cold GTP and P32 alpha GTP. The exchange reactions were stopped at the indicated times. The stopped reaction mixtures were passed through nitrocellulose filters which were then washed with stop buffer to separate bound and unbound nucleotides. Filters were dried and then quantified by scintillation counting to determine bound CPM. The labeled nucleotides trapped on the washed filters were assumed to be Ras-associated. The difference in bound CPM over 30 minute period was determined for reactions where GST-Ras was added alone (it is the difference in bound CPM between tubes 1 and 2) and where GST-Ras was added with a GEF (it is the difference in bound CPM between tubes 3 and 4).

Ras [3] = assay: Ras activation assay in living cells, GRF4 and deletion mutants expressed in HEK-293T cells; type: cell-based, human; conditions: HEK-293T cells treated with 8-Br-cAMP
Procedure: HEK-293T cells were transfected with vector alone, GRF4 (WT), GRF4 lacking its cNMP-BD (ΔcNMP-BD) or its CDC25 domain (ΔCDC25), and then treated (or not) with 8-Br-cAMP. Cell lysates were then incubated with GST-Raf1-RBD to precipitate active Ras, and immunobloited with anti Ras antibodies as above (upper panel). Lower panels are controls for total endogenous Ras and transfected GRF4 or its mutants.
Flag, HA or myc tags was added to the N-terminus of full length GRF4 using PCR, and subcloned into the mammalian expression vector pCMV5 (Invitrogen). Mutants GRF4 with deletion of the CDC25 domain (residue 711-1007, GRF4DCDC25 or DCDC25 for short), the cNMP-BD (residue 134-254, DcNMP-BD), the PLPF motif in the PDZ domain (residue 396-399, -PLPF), or bearing mutations in the PDZ-binding motif (SAV to AAA), were generated using PCR. The GST-GRF4-cNMP-BD (residue 101-303) and GST-Carboxy-terminus (residue 1348-1499) were PCR-generated and cloned into pGEX-2T ( Pharmacia). The latter construct was used to generate a fusion protein (GST-GRF4C terminus) which was used to immunize rabbits for the generation of polyclonal anti GRF4 antibodies.
HEK-293T cells were transfected as above, serum starved overnight and then subjected to various treatments, as described in the text. […] GTP in the lysates was determined using activation specific probes as described. Briefly, to determined the levels of active Ras (Ras-GTP) in cell, sepharose-bound GST fusion protein of the Ras-binding domain (RBD) of Raf-1 (GST-Raf1-RBD; Upstate Biotechnology Inc.) was used to precipitate Ras-GTP from cell lysates, and the amount of Ras-GTP determined by immunoblotting with anti Ras antibodies (Quality Biotech). Similarly, to determine the level of Rap1-GTP in cell lysates, sepharose-bound GST fusion proteins of the Rap1-binding domain of RaIGDS (GST-RaIGDS-RBD) were used to precipitate Rap1-GTP, which was then detected on a Western blot using anti-Rap1 antibodies (Transduction Lab).

Molecule | Binding to nucleotide-bound forms of Ras, similar experiments (Ras [1]) | Fold Ras activation in vitro (activation without GRFs set to 1) (Ras [2]) [fold] | 8-Br-cAMP-mediated activation of Ras via the construct, compared with wt-GRF4 (Ras [3])
B1 | bind only to EDTA-treated Ras | 4.5 | 
B2 |  |  | almost abolished
